Laboratory results published in the DeepSol protein solubility set.

Test: soluble on expression in E. coli; label from the status in PepcDB or PDB records

Row | Sequence | soluble on expression in E. coli
1 | MGSDKIHHHHHHMSYSEKMLAALSNGQIDTAKKHFAWALRKDDDQTLYSLAEELYGLGFLKQAERTYKKLLAKYPDEDDLRTSLADIAIDEDDTDLALDYLQQVKPDSPAYVQALLVEADLYQTQELFEVSEQKLKEAYQLAPDEPVVEFALAEFYFLIRNYGQATRFYLDLIKQGQLEISKVNLVERLGVAYAESGRFEQAVGYLEQIKPAKLTPDSQFELGFTYLQLNEPQKAVDIFDKLREQDNQYASLYPYLAQAQEQLHQLDKALLTLQEGLAVDQYNEQLYLQTARLALKLDDQELAEKYLREGLSIDPDNLTTVLELSNLLVQRERYQDNIDLLDQYLQSNEFDPQFYWNLAISNDRLDHFQAAKDNYEAAYPFFEHNKDFLKPAIYFFREAGMADSAVAALRNYLTIEPDDGEMVAMLEDYEDQGY | not soluble
2 | MGSDKIHHHHHHMTAQQGVPIKITNKEIAQEFLDKYDTFLFDCDGVLWLGSQALPYTLEILNLLKQLGKQLIFVTNNSTKSRLAYTKKFASFGIDVKEEQIFTSGYASAVYIRDFLKLQPGKDKVWVFGESGIGEELKLMGYESLGGADSRLDTPFDAAKSPFLVNGLDKDVSCVIAGLDTKVNYHRLAVTLQYLQKDSVHFVGTNVDSTFPQKGYTFPGAGSMIESLAFSSNRRPSYCGKPNQNMLNSIISAFNLDRSKCCMVGDRLNTDMKFGVEGGLGGTLLVLSGIETEERALKISHDYPRPKFYIDKLGDIYTLTNNEL | not soluble
3 | MGSDKIHHHHHHMTDIATYNFAYLDEQTKRMIRRAILKGIAIPGYQVPFASREMPMPYGWGTGGVQVTASIIGPDDVLKVIDQGADDTTNAVSIRAFFKKVANVAVTTNTASATIIQTRHRIPEHPLTAGQVLVYQVPIPEPLRFLEPRETETRKMHALEEYGLMHVKLYEDIAKHGRIATTYAYPVKVEGRYVMDPSPTPKFDNPKMHRSPALQLFGAGREKRIYAVPPFTDVVSLDFEDHPFEVQTFDQPCALCAAENVYLDEVILDDHGGHMFVCSDTDHCEKRREEGHRGHLAPETHLGSEKMEPAQ | not soluble
4 | MGSDKIHHHHHHMTDRSSFIDTARQVVLDEARALDALSESLGDGFAEAVELILRTKGRVIVSGIGKSGHIGHKIAATLASTGTPAYFVHPAEASHGDLGMLSGDDVVLAISNSGEAPELANLLAFTRRFAIPLIGLSSKSESSLMQQADVHLLIPALGEACGFGMVPSISTTLTLAMGDALAIALMKYRDFRPENFRVFHPGGKLGARLSRVSDLMHGGEAVPLIAADTPMSEALLEISRKGFGVVGVTDGAGHLAGIVTDGDLRRHMSGLLDKTAAQVMTANPTTIAPDSLAEEAVAIMNARKITSLFVVDPAEPGVARGLLHIHDCLRVGLG | not soluble
5 | MGSDKIHHHHHHMTEGKSMFVGFDYGSANCAIGVMIDDAVSLLPLSTHSDFMPSTLYAMDRELIAEAVYQGLPEHLKAEYSHLRSSQLMRAKLMRHELDLSPNEQAVFVGQAAIDAYLDMPEEGFYVRSPKSFLGANGLRVEQIALFEDIVTLMMQHVKTLADKALNAKSLSSASHAVIGRPVNFQGIGGEDSNQQAETILRLAATRSGFTDVRFLFEPLAAGMDFESNLSDDNTVLVVDVGGGTTDCSVVKMGPSYIKQQDRSPDCFGHSGQRIGGNDLDIALAMTGLMPSFGADTLMINGKPMPRTPFWNAVAVNDISAQRDFVSLPSRKLVEQLIKEAQQPELLVRLQKVQKNQMSYQVVREAEAAKISLSDNDTIQCSLDFIEKGLLVPLTAAQFEQAINDPLAKVEALMKQAMQTATAKAEQQDCDMPTTPDIVYVTGGTARSPAIYNKIASVYPNAKVVVGDHFGSVTAGLTRCAEKCL | not soluble
6 | MGSDKIHHHHHHMTEIATIEKPAQHGATTRLIDIVFPGDTNHHGTLFGGTGLALMDRVAFIAATRFGRTPFVTASCERIDFRQPARIGHIVEFTARPVKAGRRSLTVEVEMVAETIIGRQQHTCTRGIFHMVAIPEGEDAASYVLPELLTEETPDPSDAVTMVEIVFPDQANSAGRMFGGEAIAYMTKAAFVAASRYCGKLVVLASSERIDFARAIEIGEIVEAQAHVERVGRSSMSIQTKLWSENLLTGERHITATGHFTMVAVDKDHRPATIRDPAEAFSLEKGGA | soluble
7 | MGSDKIHHHHHHMTEIQTIRKKVEQQITSLQNETDEIAEFNQAKVLDAFQENKVSDFHFNPSTGYGYDDEGRDTLERVYASVFKTEAALVRPQIISGTHAISTVLFGILRPGDELLYITGEPYDTLEEIVGIRSEGQGSLKDFQIGYDAVPLLPNGEIDYPAVSKKISANTKMIGIQRSRGYADRPSFTIEKIKEMVTFVKNINPNIIVFVDNCYGEFVERIEPTEVGADIIAGSLIKNPGGGLAKTGGYIAGRNTLVDLCGYRLTTPGIGREAGASLYSLLEMYQGFFLAPHVTAQAIKGARFTAAMLAEFGVEADPLWDAKRTDLIQSVSFHSKDKMIAFAQAIQAASPVNAHVLPIGAYMPGYEDDVIMAAGTFIQGASLELTADGPIREPYQLYVQGGLTYEHVKIAVTRAIENSL | not soluble
8 | MGSDKIHHHHHHMTEMNHSVPDDMLMGYASGSLAKAFDLVLATHVSLNDDARARLETFEALGGAILCGMDTVDVDDDSLEQTMAKIRGNAPIERPAPSEGLFPTPLQSMVGGDVDAVRWRSVGGGVKQCVLHSDDGGTVRLLSIAAGRAMPAHSHHGTEMTLVLQGAYRDDDGIFARGDLELADTDTNHQPVAEPGQDCICLVATNAKLKFQGLLPRIAQPFLGI | not soluble
9 | MGSDKIHHHHHHMTEQITPQAFLAGRLLLESEVPSEFLTNKDVITEPSIITENGRYHCRRCCNEHRELFATAPCAWCGNRHCIYCRNCLMLGRVTACRKLVRWKGEPYAFPSHSNVLQWKGTLSHGQRHASLQAVQYWKQKEDHIIWAVCGSGKTEIVFDAVAQSLANGERILLATPRVDVVKELYPRFKQAFPSITITALYGDSPSVFHPAQLVIATTHQTFRFKKAFDFVIVDEVDAFPFSCDQSLQLSVNEARRPLAPILYLSATPSRSLLEQNKRITKVSTRYHGHPLPLPSFVWIGNWRKTVMRRKLPSKLVTWLEKHHRKPVFLFVPSIPVLEQVSAALKQLGYIHDAVHAEDPHRHEKVTRFRDGVTKLLVTTTILERGVTVPRVQVAVLGAEHSVFSEAALVQISGRVGRSHRHPTGDIAFFHYGVSKAMKRCRQQLQQMNREGF | not soluble
10 | MGSDKIHHHHHHMTEQNRDLVLVTGASGFVGSSVARIAQQKGFKVRVLVRATSPRQNVESLDAEIVVGDMRDEASMRNALRGVRYLLHVAADYRLWAPDPSEIERSNLEGTEATMRAALKEGVERIVYTSSVATLKVTSSGQSADETSPLKADQAIGVYKRSKVLAERAVERMIAEDNLPAVIVNPSTPIGPRDVKPTPTGRIIVEAALGKIPAFVDTGLNLVHVDDVAAGHFLALERGKIGERYILGGENLPLQQMLADIAALTGRKAPTLSLPRWPLYPLAMGAEAIAKITKREPFVTVDGLKMSKNKMYFTSAKAERELGYRARPYREGLGDALEWFRQAGYLKA | not soluble
11 | MGSDKIHHHHHHMTEVISTQSVVDLAAIAEKFAFPGTVTNVQAFGSGNINDTFLVTVDSLEAQHFILQRINTLVFRQPELIMQNMRIFSDHVYQRLQYAPPSRRWEVPRILSTKDNHDYCTDTQGNFWRAISFISGSQSFDTMQDLAQAQEIGYALGMFHNLISDLSPEKLADTLVGFHITPLYLRHYEQVLATAKPQPSPELDYCLQFVSDRQSYACILENAKAAGELPLRLMHGDPKINNIMFDTVTHKAVSVIDLDTVKPGLVHYDIGDCLRSGCNHAGEETEHWESVAFDTDLCQGILQGYLSVAKDFLTENDYAYMYDAIRLIAFELGLRFFADYLAGNVYFKIKYPEHNLARALVQFKLTESIESQEIKIRKIIQDIK | not soluble
12 | MGSDKIHHHHHHMTFIDSPLSQTIALAGGDLHVAVARSDLPLGALCGFASRRNPKRPFLFVSKVLGRHLPVRPQVMRMVHRRLAAKLPANLPGPVVAIGMAETAICLGQGVFEAWRGGSGREDGLFIHSTRYRLRQGLLSTFEESHSHATSHLIHQPAAALDRALCAACRTLVLVDDEASTGATFVALVEANRAAMPNLARIVCVTITDWMGAAKRAEITAAMPVPTTFVSLLEGGYTFEARTVTPPAMPNVTGDGAFKDDLIPVNWGRLGLRRPRPLPAAALAIRAKAGERVLVLGTGEFVFPPFQLARRLSAMGADVRVQATTRSPILEGGDIDGVIDFADAYGDGIPNFLYSTRPGDYDRVLVCYETPPSTAQTALIAALGAEPVFFNAIGGPRT | not soluble
